Experimental data: publication PMC8944281 (Proceedings of the National Academy of Sciences of the …, 2022)

Molecular target: T1, His8-tagged GSAP-16K 734 to 758 (UniProt A4D1B5 734-758)
T1 chain (looked up): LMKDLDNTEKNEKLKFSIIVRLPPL
Test: SEC

binding result: binds
Binder: SIHHGVVEV (domain or fragment, UniProt P05067 730-738, looked up) [GST-APP 730 to 738]
